Assay [1] addresses T1, rat calcitonin receptor (rat, UniProt P32214 25-516).
T1 construct: whole, on cells; Cell membranes of transiently transfected BHK tk'ts 13 cells (Assay VIII); also called rCTR; rCT
T1 sequence (looked up): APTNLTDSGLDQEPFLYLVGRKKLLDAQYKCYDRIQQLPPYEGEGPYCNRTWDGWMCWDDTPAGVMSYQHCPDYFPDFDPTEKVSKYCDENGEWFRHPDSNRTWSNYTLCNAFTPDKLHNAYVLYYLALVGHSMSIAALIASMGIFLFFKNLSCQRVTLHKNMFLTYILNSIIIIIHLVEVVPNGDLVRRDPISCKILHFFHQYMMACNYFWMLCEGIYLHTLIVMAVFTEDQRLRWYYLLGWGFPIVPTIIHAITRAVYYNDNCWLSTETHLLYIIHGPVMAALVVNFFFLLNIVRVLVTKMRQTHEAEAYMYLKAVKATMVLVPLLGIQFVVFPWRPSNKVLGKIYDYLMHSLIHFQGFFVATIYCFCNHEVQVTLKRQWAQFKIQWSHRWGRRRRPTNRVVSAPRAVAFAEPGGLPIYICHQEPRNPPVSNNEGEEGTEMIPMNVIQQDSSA
Description: SPA competition vs 125I-calcitonin, membranes with rat CTR (Assay VIII).

The target of assay [2] is T2, rat amylin receptor (rat calcitonin receptor + rat RAMP 3) (rat, UniProt P32214 25-516; Q9JJ73 23-147).
T2 construct: whole, on cells; Cell membranes of transiently transfected BHK tk'ts 13 cells (Assay VI); also called rAmylin-R; rat amylin 3(a) receptor
T2 sequence (looked up) 1: T1 sequence (looked up)
T2 sequence (looked up) 2: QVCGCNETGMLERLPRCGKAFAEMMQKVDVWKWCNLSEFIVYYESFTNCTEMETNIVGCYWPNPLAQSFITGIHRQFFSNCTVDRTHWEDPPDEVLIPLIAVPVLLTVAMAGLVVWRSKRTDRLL
Description: SPA competition vs 125I-rat amylin, membranes with rat CTR + rat RAMP3 (Assay VI).

Assay [3] has as its target T1, rat calcitonin receptor. Description: ratio IC50 rat calcitonin receptor / IC50 rat amylin receptor.

Experimental findings from patent US20140087995A1 (published 2014) are described below.

Numbered stars: 1 amine (or outer) side, 2 acyl side, 3 side chain; on linkers, the order of the positions; unused ones are H or OH. Bridge positions count the residues as written; N and C are the ends. Side chains are listed from the residue outwards. Ends that are not written are not given here. * marks the point of attachment. C20 diacid = O=C(O)CCCCCCCCCCCCCCCCCCC(=O)*; γGlu = O=C(O)[C@H](CCC(=O)[*:2])N[*:1]; AEEA = NCCOCCOCC(=O)O

What is called IC50 is the concentration needed to halve the response being measured.

B1: N^ε1-[2-[2-[2-[[(4S)-4-carboxy-4-(19-carboxynonadecanoylamino)butanoyl]amino]ethoxy]ethoxy]acetyl]-[His14,Arg17,Pro21,Pro27,Pro31]-h-amylin (peptide)
peptide: K([AEEA-γGlu-C20 diacid])CNTATCATQRLAHFLRHSSPNFGAIPSSTPVGSNTY-NH2
modifications: disulfide 2-7; N-terminus assumed
SMILES: CC[C@H](C)[C@H](NC(=O)[C@H](C)NC(=O)CNC(=O)[C@H](Cc1ccccc1)NC(=O)[C@H](CC(N)=O)NC(=O)[C@@H]1CCCN1C(=O)[C@H](CO)NC(=O)[C@H](CO)NC(=O)[C@H](Cc1c[nH]cn1)NC(=O)[C@H](CCCNC(=N)N)NC(=O)[C@H](CC(C)C)NC(=O)[C@H](Cc1ccccc1)NC(=O)[C@H](Cc1c[nH]cn1)NC(=O)[C@H](C)NC(=O)[C@H](CC(C)C)NC(=O)[C@H](CCCNC(=N)N)NC(=O)[C@H](CCC(N)=O)NC(=O)[C@@H](NC(=O)[C@H](C)NC(=O)[C@@H]1CSSC[C@H](NC(=O)[C@@H](N)CCCCNC(=O)COCCOCCNC(=O)CC[C@H](NC(=O)CCCCCCCCCCCCCCCCCCC(=O)O)C(=O)O)C(=O)N[C@@H](CC(N)=O)C(=O)N[C@@H]([C@@H](C)O)C(=O)N[C@@H](C)C(=O)N[C@@H]([C@@H](C)O)C(=O)N1)[C@@H](C)O)C(=O)N1CCC[C@H]1C(=O)N[C@@H](CO)C(=O)N[C@@H](CO)C(=O)N[C@H](C(=O)N1CCC[C@H]1C(=O)N[C@H](C(=O)NCC(=O)N[C@@H](CO)C(=O)N[C@@H](CC(N)=O)C(=O)N[C@H](C(=O)N[C@@H](Cc1ccc(O)cc1)C(N)=O)[C@@H](C)O)C(C)C)[C@@H](C)O
notes: Acylated analogue of human amylin; also called compound 61
Consider B1, for which the IC50 in assay [1] came out at 33.4 nM; in assay [2], 0.842 nM. In assay [3], the “Ratio rCT/rAmylin binding” value is 39.7.

B2: N^ε1-[(4S)-4-carboxy-4-(19-carboxynonadecanoylamino)butanoyl]-[Arg17,Pro21,Pro27,His35]-h-amylin (peptide)
peptide: K([γGlu-C20 diacid])CNTATCATQRLANFLRHSSPNFGAIPSSTNVGSHTY-NH2
modifications: disulfide 2-7; N-terminus assumed
SMILES: CC[C@H](C)[C@H](NC(=O)[C@H](C)NC(=O)CNC(=O)[C@H](Cc1ccccc1)NC(=O)[C@H](CC(N)=O)NC(=O)[C@@H]1CCCN1C(=O)[C@H](CO)NC(=O)[C@H](CO)NC(=O)[C@H](Cc1c[nH]cn1)NC(=O)[C@H](CCCNC(=N)N)NC(=O)[C@H](CC(C)C)NC(=O)[C@H](Cc1ccccc1)NC(=O)[C@H](CC(N)=O)NC(=O)[C@H](C)NC(=O)[C@H](CC(C)C)NC(=O)[C@H](CCCNC(=N)N)NC(=O)[C@H](CCC(N)=O)NC(=O)[C@@H](NC(=O)[C@H](C)NC(=O)[C@@H]1CSSC[C@H](NC(=O)[C@@H](N)CCCCNC(=O)CC[C@H](NC(=O)CCCCCCCCCCCCCCCCCCC(=O)O)C(=O)O)C(=O)N[C@@H](CC(N)=O)C(=O)N[C@@H]([C@@H](C)O)C(=O)N[C@@H](C)C(=O)N[C@@H]([C@@H](C)O)C(=O)N1)[C@@H](C)O)C(=O)N1CCC[C@H]1C(=O)N[C@@H](CO)C(=O)N[C@@H](CO)C(=O)N[C@H](C(=O)N[C@@H](CC(N)=O)C(=O)N[C@H](C(=O)NCC(=O)N[C@@H](CO)C(=O)N[C@@H](Cc1c[nH]cn1)C(=O)N[C@H](C(=O)N[C@@H](Cc1ccc(O)cc1)C(N)=O)[C@@H](C)O)C(C)C)[C@@H](C)O
notes: Acylated analogue of human amylin; also called compound 60
Turning to B2, the IC50 in assay [1] turned out to be 26.3 nM; in assay [2], 0.215 nM. In addition, the “Ratio rCT/rAmylin binding” value in assay [3] came out at 122.
